Experimental data as given in US8481255B2, “Scytovirin domain 1 related polypeptides” (The United States of America, as represented by the …, priority 2005, dated 2013).

B1: scytovirin: antiviral scytovirin polypeptide, SEQ ID NO: 4 (protein, listed as Scytonema varium)
chain: GSGPTYCWNEANNPGGPNRCSNNKQCDGARTCSSSGFCQGTSRKPDPGPKGPTYCWDEAKNPGGPNRCSNSKQCDGARTCSSSGFCQGTAGHAAA

Tests used:
[1] = molecular target: HIV-1 gp120 (Human immunodeficiency virus type 1 group M subtype B, UniProt P03375); conditions: 100 ng/well gp120, absorbance at 450 nm
Method: (§1) Briefly, the 100 ng/well of either gp120 and gp41 proteins was bound to a 96-well plate, which was then rinsed with PBS containing 0.05% Tween 20 (TPBS) and blocked with BSA. Between each subsequent step, the plate was again rinsed with TPBS (x3). […] Upon addition of the horseradish peroxidase substrate buffer and color formation, the reaction was stopped by the addition of 2M H2SO4 (after 5 minutes for the gp120 plate and 15 minutes for the gp41 plate) and absorbance was measured at 450 nm for each well.

[2] = molecular target: HIV-1 gp41 ectodomain (Human immunodeficiency virus type 1 group M subtype B, UniProt P03375); conditions: 100 ng/well gp41, absorbance at 450 nm
Method: as §1

[3] = tested on: HIV-1RF; assay: XTT-tetrazolium based anti-HIV assay, acute HIV-1 infection in CEM-SS cells; type: cell-based; conditions: T-tropic laboratory strain HIV-1RF in CEM-SS cells; read-out: EC50 against HIV-1RF
Text: (§2) The protocol followed was the same as described in Gulakowski et al., J. Virol. Methods, 33: 87-100 (1991).
The deletion mutants were subjected to the XTT-tetrazolium based assay as described in Example 2.

[4] = tested on: CEM-SS cells
Text: as §2

[5] = tested on: HIV gp120; conditions: 100 μM sugar or 100 μg/well α-acid glycoprotein; 100 ng/well peptide
Method: (§3) Scytovirnin specifically binds to a α-1-2, α1-2, α1-6-linked tetramannoside, a substructure of oligomannose-8 and -9 found on HIV envelope glycoproteins gp120 and gp41 (Adams et al., Chem. Biol., 11(6): 875-881 (2004)). […] Briefly, a 96-well plate was prepared as described in Example 1 with glycosylated gp120 or gp41 and 100 ng/well of scytovirin or a scytovirin-derived peptide. […] Each well also contained (a) various concentrations of oligomannose-8, (b) 100 μM of glucose, mannose, galactose, xylose, or N-acytylglucosamine, or (c) 100 μg/well α-acid glycoprotein (to act as a carrier for sialic acid). The plate was then washed and visualized using anti-scytovirin polyclonal antibodies as described in Example 1.

[6] = tested on: gp41; conditions: various concentrations of oligomannose-8
Method: as §3

Molecule | binding affinity to gp120 (ELISA) [1] | binding affinity to gp41 (ELISA) [2] | EC50 [3] [nM] | toxicity to the CEM-SS cell line, not detected at concentrations up to [4] | inhibition of binding to gp120 by glucose, mannose, galactose, xylose, N-acytylglucosamine, α-acid glycoprotein with sialic acid [5] | inhibition of binding to gp41 by oligomannose-8 [6]
SD1: polypeptide of SEQ ID NO: 1, derived from amino acids 1-48 of scytovirin (scytovirin domain 1) (GSGPTYSWNEANNPGGPNRCSNNKQCDGARTCSSSGFCQGTSRKPDPG) | approximately the same affinity | approximately the same affinity | 6.6 | > 10,000 nM | not able to inhibit binding | able to inhibit the binding of SD1 to gp41 in a concentration-dependent manner
B1 | approximately the same affinity | approximately the same affinity | 7.5 | > 10,000 nM | – | –
